Experimental data from patent publication US20090123479A1 (published 2009).

B1: chimeric 8C92H6 HC1LC1 (antibody, V domains shown)
VH: QVQLQQSGAELARPGTSVKLSCKASGYTFTSYGITWVKQRTGQGLEWIGENYPRSGNTYYNEKFKGKATLTADKSSSTAYMELRSLTSEDSAVYFCARCEFISTVVAPYYYALDYWGQGTSLVTVS
VL: DIVLTQSPASLAVSLGQKATISCKASKKVTIFGSISALHWYQQKPGQPPKLIYNGAKLESGVSARFSDSGSQNRSPFGNQLSFTLTIDPVEADDAATYYCLQNKEVPYTFGGGTKLEIKR
notes: Murine variable regions with human constant regions; also called 8C92H6.HC1LC1 Chimera; 8C9 chimera
B2: A3M0 (antibody, human IgG1, kappa, V domains shown)
VH: QVQLVQSGAEVKKPGSSVKVSCKASGYTFTSYGITWVRQAPGQGLEWMGENYPRSGNTYYNEKFKGRVTITADKSTSTAYMELSSLRSEDTAVYYCARSEFISTVVAPYYYALDYWGQGTLVTVSS
VL: DIVMTQSPDSLAVSLGERATINCKASKKVTIFGSISALHWYQQKPGQPPKLIYNGAKLESGVPDRFSGSGSGTDFTLTISSLQAEDVAVYYCLQNKEVPYTFGGGTKVEIKR
notes: Full length chains; also called humanized mAb A3M0

What was measured:
recombinant human IL-23 [1] = target: T1, recombinant human IL-23 (human, UniProt Q9NPF7 20-189; P29460 23-328); assay: SPR (Biacore T100), purified material captured on Protein A or anti-human IgG, IL-23 analyte at 256, 64, 16, 4, 1 nM
T1 construct: also called hIL-23
T1 sequence 1: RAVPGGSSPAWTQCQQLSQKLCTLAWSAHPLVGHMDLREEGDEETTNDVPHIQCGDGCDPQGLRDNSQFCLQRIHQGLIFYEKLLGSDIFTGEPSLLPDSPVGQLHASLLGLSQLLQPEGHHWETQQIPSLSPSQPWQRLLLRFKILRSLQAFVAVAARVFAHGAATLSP
T1 sequence 2: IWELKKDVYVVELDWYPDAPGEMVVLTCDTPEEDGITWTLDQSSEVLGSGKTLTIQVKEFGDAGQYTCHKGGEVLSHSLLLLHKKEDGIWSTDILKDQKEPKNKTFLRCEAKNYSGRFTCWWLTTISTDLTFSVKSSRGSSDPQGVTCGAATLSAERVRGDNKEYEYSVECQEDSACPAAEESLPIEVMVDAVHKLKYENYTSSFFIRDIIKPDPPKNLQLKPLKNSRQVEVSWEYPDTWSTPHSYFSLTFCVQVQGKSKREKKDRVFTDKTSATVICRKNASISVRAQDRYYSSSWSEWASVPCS
Experimental: Protein A or an anti-human IgG (Biacore BR-1008-39) was immobilised on a Biacore CM5 chip by primary amine coupling in accordance with the manufacturer's instructions. Anti IL-23 antibodies were captured on this surface and after a period of stabilisation, […] was passed over the antibody captured surface and a binding sensorgram was obtained. […] All runs were double referenced with a buffer injection over the captured antibody surface. Data was analysed using the 1:1 model using the software inherent to the Biacore 3000 or T100 depending upon which machine was used to generate kinetics. Analysis was carried out at 25° C. using HBS-EP buffer. Data presented in Tables 3-6 are on tissue culture supernatants of CHO cells transiently expressing the antibody of interest unless otherwise indicated. Data was generated using concentrations of IL-23 (256, 64, 16, 4, 1 and 0.25 nM) The data shown for the humanized variants is representative of a number of runs, The chimeric mAb (8C9H6.HC1LC1) was only run once in each experiment, so data shown for this mAb is from that one run, […]

recombinant human IL-23 [2] = target: T1, recombinant human IL-23; assay: IL-23/IL-23R inhibition ELISA (optimised protocol, OD450): plate coated with human IL23R Fc chimera, antibody pre-incubated with constant human IL-23, bound IL-23 detected with biotinylated anti-human IL-12; purified antibody
Endogenous human IL-23 [3] = target: T2, Endogenous human IL-23 (human, UniProt Q9NPF7 20-189; P29460 23-328); assay: receptor inhibition ELISA: plate coated with recombinant human IL-23 receptor, endogenous human IL-23 at 3.5 ng/ml pre-incubated with titrated purified antibody, bound IL-23 detected with biotinylated anti-human IL-12; 1% BSA
T2 construct: also called endogenous human IL-23 from stimulated dendritic cells
T2 sequence 1: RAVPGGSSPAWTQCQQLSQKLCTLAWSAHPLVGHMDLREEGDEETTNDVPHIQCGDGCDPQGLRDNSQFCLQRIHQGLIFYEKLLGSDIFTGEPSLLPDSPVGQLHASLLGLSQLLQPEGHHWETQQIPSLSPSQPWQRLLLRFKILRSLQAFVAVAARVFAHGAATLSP
T2 sequence 2: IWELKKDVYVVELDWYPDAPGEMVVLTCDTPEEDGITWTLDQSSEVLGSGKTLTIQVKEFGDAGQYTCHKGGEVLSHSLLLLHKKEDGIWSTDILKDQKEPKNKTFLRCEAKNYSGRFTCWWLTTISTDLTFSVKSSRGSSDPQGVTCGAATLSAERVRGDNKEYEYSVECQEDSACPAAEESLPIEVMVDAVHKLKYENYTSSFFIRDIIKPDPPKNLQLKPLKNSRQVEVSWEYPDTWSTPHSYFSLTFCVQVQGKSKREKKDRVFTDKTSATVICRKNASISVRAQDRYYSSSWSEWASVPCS
Experimental: (§1) Recombinant human IL-23 Receptor (R&D systems 1400-IR-050) was coated onto 96 well plates at a concentration of 1 μg/ml. Endogenous human IL-23 at 3.5 ng/ml final, was pre incubated for 1 hour with a titration of purified antibody material before being added to the pre-coated plates. Detection was performed with biotinylated anti-human 1L12 (R&D systems BAF-219) followed by Streptavidin-HRP (GE Healthcare RPN 4401). This neutralisation ELISA used 1% BSA.

Endogenous human IL-23 [4] = target: T2, Endogenous human IL-23; assay: receptor inhibition ELISA in 25% human pooled AB serum: plate coated with recombinant human IL-23 receptor, endogenous human IL-23 at 5 ng/ml pre-incubated with titrated purified antibody, bound IL-23 detected with biotinylated anti-human IL-12
Experimental: as §1, with “5” for “3.5”, “incubated” for “incubated for 1 hour”, “mAbs” for “antibody material”, “IL12” for “1L12”, “BAF-219),” for “BAF-219)”, “25% human pooled AB type serum.” for “1% BSA.”

| Binder | Kd (recombinant human IL-23 [1]) [nM] | koff (recombinant human IL-23 [1]) [s⁻¹] | kon (recombinant human IL-23 [1]) [M⁻¹ s⁻¹] | IC50 (read off the curve) (recombinant human IL-23 [2]) [nM] | IC50 (read off the curve) (Endogenous human IL-23 [3]) [µg/mL] | IC50 (read off the curve) (Endogenous human IL-23 [4]) [µg/mL] |
| --- | --- | --- | --- | --- | --- | --- |
| B1 | 2.2 | 0.00043 | 200000 | ~2 | ~0.1 | ~0.02 |
| B2 | – | – | – | ~0.5 | ~0.005 | ~0.01 |
